Source: PMC9352680, “A comprehensive thermodynamic model for RNA binding by the Saccharomyces cerevisiae Pumilio protein PUF4”

T1: PUF4 RNA-binding domain (Saccharomyces cerevisiae, UniProt P25339 537-888)
T1 sequence: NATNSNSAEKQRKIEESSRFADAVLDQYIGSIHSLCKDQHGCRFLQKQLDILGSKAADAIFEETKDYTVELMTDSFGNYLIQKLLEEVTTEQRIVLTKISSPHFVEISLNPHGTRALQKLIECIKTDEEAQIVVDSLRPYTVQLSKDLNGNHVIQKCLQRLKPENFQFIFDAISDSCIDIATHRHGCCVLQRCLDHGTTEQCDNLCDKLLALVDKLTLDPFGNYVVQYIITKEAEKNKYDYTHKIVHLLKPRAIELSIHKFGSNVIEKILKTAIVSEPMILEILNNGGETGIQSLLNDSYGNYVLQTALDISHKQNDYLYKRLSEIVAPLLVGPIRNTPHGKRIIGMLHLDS

B1: Ic_S2_P3E.1_K3.1_C3.1_H3.1_A3.1_[T5A]_[A6T]_F3.1_[T7G]_[A8T]_T3.1 (ssRNA)
RNA: UUUGAUUAAUAUGAUAUCGUUCUUUCUUGUAAUGUUUCUUUCUCGAUAUCAUAUUAAUCUUU
B2: Ic_S2_P3E.1_K3.1_C3.1_H3.1_A3.1_[T5A]_[A6T]_F3.1_[A8C]_T3.1 (ssRNA)
RNA: UUUGAUUAAUAUGAUAUCGUUCUUUCUUGUAAUUCUUCUUUCUCGAUAUCAUAUUAAUCUUU
B3: Ic_S2_P3E.1_K3.1_C3.1_H3.1_A3.1_[A6G]_F3.1_[T7C]_[A8C]_T3.1 (ssRNA)
RNA: UUUGAUUAAUAUGAUAUCGUUCUUUCUUGUAUGCCUUCUUUCUCGAUAUCAUAUUAAUCUUU
B4: Ic_S2_P3E.1_K3.1_C3.1_H3.1_A3.1_[A6T]_F3.1_[T7C]_[A8C]_T3.1 (ssRNA)
RNA: UUUGAUUAAUAUGAUAUCGUUCUUUCUUGUAUUCCUUCUUUCUCGAUAUCAUAUUAAUCUUU
B5: Ic_S2_P3E.1_K3.1_C3.1_H3.1_A3.1_[T5A]_[A6T]_F3.1_[A8T]_T3.1 (ssRNA)
RNA: UUUGAUUAAUAUGAUAUCGUUCUUUCUUGUAAUUUUUCUUUCUCGAUAUCAUAUUAAUCUUU
B6: Ic_S2_P3E.1_K3.1_C3.1_H3.1_A3.1_[A6T]_F3.1_[T7C]_[A8T]_T3.1 (ssRNA)
RNA: UUUGAUUAAUAUGAUAUCGUUCUUUCUUGUAUUCUUUCUUUCUCGAUAUCAUAUUAAUCUUU
B7: Ic_S2_P3E.1_K3.1_C3.1_H3.1_A3.1_[A6C]_F3.1_[T7A]_[A8G]_T3.1 (ssRNA)
RNA: UUUGAUUAAUAUGAUAUCGUUCUUUCUUGUAUCAGUUCUUUCUCGAUAUCAUAUUAAUCUUU
B8: Ic_S2_P3E.1_K3.1_C3.1_H3.1_A3.1_[T5A]_[A6T]_F3.1_[T7A]_[A8G]_T3.1 (ssRNA)
RNA: UUUGAUUAAUAUGAUAUCGUUCUUUCUUGUAAUAGUUCUUUCUCGAUAUCAUAUUAAUCUUU
B9: Ic_S2_P3E.1_K3.1_C3.1_H3.1_A3.1_[A6C]_F3.1_[T7G]_[A8T]_T3.1 (ssRNA)
RNA: UUUGAUUAAUAUGAUAUCGUUCUUUCUUGUAUCGUUUCUUUCUCGAUAUCAUAUUAAUCUUU
B10: Ic_S2_P3E.1_K3.1_C3.1_H3.1_A3.1_[T5A]_[A6C]_F3.1_[T7C]_[A8T]_T3.1 (ssRNA)
RNA: UUUGAUUAAUAUGAUAUCGUUCUUUCUUGUAACCUUUCUUUCUCGAUAUCAUAUUAAUCUUU
B11: Ic_S2_P3E.1_K3.1_C3.1_H3.1_A3.1_[T5A]_[A6C]_F3.1_[T7A]_[A8G]_T3.1 (ssRNA)
RNA: UUUGAUUAAUAUGAUAUCGUUCUUUCUUGUAACAGUUCUUUCUCGAUAUCAUAUUAAUCUUU
B12: Ic_S2_P3E.1_K3.1_C3.1_H3.1_A3.1_[T5A]_[A6T]_F3.1_[T7C]_[A8T]_T3.1 (ssRNA)
RNA: UUUGAUUAAUAUGAUAUCGUUCUUUCUUGUAAUCUUUCUUUCUCGAUAUCAUAUUAAUCUUU
B13: Ic_S2_P3E.1_K3.1_C3.1_H3.1_A3.1_[A6T]_F3.1_[T7G]_[A8C]_T3.1 (ssRNA)
RNA: UUUGAUUAAUAUGAUAUCGUUCUUUCUUGUAUUGCUUCUUUCUCGAUAUCAUAUUAAUCUUU
B14: Ic_S2_P3E.1_K3.1_C3.1_H3.1_A3.1_F3.1_T3.1 (ssRNA)
RNA: UUUGAUUAAUAUGAUAUCGUUCUUUCUUGUAUAUAUUCUUUCUCGAUAUCAUAUUAAUCUUU
B15: Ic_S2_P3E.1_K3.1_C3.1_H3.1_A3.1_[A6C]_F3.1_[T7C]_[A8T]_T3.1 (ssRNA)
RNA: UUUGAUUAAUAUGAUAUCGUUCUUUCUUGUAUCCUUUCUUUCUCGAUAUCAUAUUAAUCUUU
B16: Ic_S2_P3E.1_K3.1_C3.1_H3.1_A3.1_[T5A]_[A6T]_F3.1_[T7A]_[A8T]_T3.1 (ssRNA)
RNA: UUUGAUUAAUAUGAUAUCGUUCUUUCUUGUAAUAUUUCUUUCUCGAUAUCAUAUUAAUCUUU
B17: Ic_S2_P3E.1_K3.1_C3.1_H3.1_A3.1_[T5A]_[A6C]_F3.1_[T7A]_[A8T]_T3.1 (ssRNA)
RNA: UUUGAUUAAUAUGAUAUCGUUCUUUCUUGUAACAUUUCUUUCUCGAUAUCAUAUUAAUCUUU
B18: Ic_S2_P3E.1_K3.1_C3.1_H3.1_A3.1_[A6C]_F3.1_[T7A]_[A8T]_T3.1 (ssRNA)
RNA: UUUGAUUAAUAUGAUAUCGUUCUUUCUUGUAUCAUUUCUUUCUCGAUAUCAUAUUAAUCUUU
B19: Ic_S2_P3E.1_K3.1_C3.1_H3.1_A3.1_[T5A]_F3.1_[T7C]_[A8T]_T3.1 (ssRNA)
RNA: UUUGAUUAAUAUGAUAUCGUUCUUUCUUGUAAACUUUCUUUCUCGAUAUCAUAUUAAUCUUU
B20: Ic_S2_P3E.1_K3.1_C3.1_H3.1_A3.1_[A6G]_F3.1_[T7G]_[A8C]_T3.1 (ssRNA)
RNA: UUUGAUUAAUAUGAUAUCGUUCUUUCUUGUAUGGCUUCUUUCUCGAUAUCAUAUUAAUCUUU
B21: Ic_S2_P3E.1_K3.1_C3.1_H3.1_A3.1_[T5A]_[A6C]_F3.1_[A8G]_T3.1 (ssRNA)
RNA: UUUGAUUAAUAUGAUAUCGUUCUUUCUUGUAACUGUUCUUUCUCGAUAUCAUAUUAAUCUUU

Each binder was assayed against T1, PUF4 RNA-binding domain (assay: Mg; RNA-MaP; 20 mM Na-HEPES pH 7.4, 30 mM KOAc, 0.75 mM MgCl2, 0.1% Tween-20, 5% glycerol, 0.1 mg/mL BSA, 2 mM DTT; 25 C; 0.0125-409.6 nM protein). Settings: tags: N-His6-TEV cleaved; C-SNAP kept, Cy3B-labelled; label: tethered on chip by stalled RNA polymerase.
In the case of B1, the Kd is reported as 174 nM. B2 was tested, and the Kd was 120 nM. B3 showed a Kd of 585 nM. Binder B4 has a Kd of 76 nM. For B5, the Kd was 19.2 nM. B6 showed a Kd of 11.9 nM. B7 showed a Kd of 208 nM. Binder B8 has a Kd of 1530 nM. B9 showed a Kd of 114 nM. Work on B10 yielded a Kd of 23.5 nM. For B11, the Kd was 947 nM. In the case of B12, the Kd is reported as 22.5 nM. For B13, the Kd was 442 nM. B14 showed a Kd of 1.38 nM. In the case of B15, the Kd is reported as 13.7 nM. With B16 the Kd was 11.6 nM. With B17 the Kd was 8.69 nM. Binder B18 has a Kd of 4.83 nM. In the case of B19, the Kd is reported as 19.9 nM. With B20 the Kd was 950 nM. Work on B21 yielded a Kd of 101 nM. UCUCUUUAUAUGUAUCUCUU (ssRNA) [Ib_S1_P3E.1_K3.1_C3.1_H3.1_[G2A]_A3.1_[A6G]_F3.1_T3.1] was tested, and the Kd was 384 nM. Binder UCUCUUUGCAAAUAUCUCUU (ssRNA) [Ib_S1_P3E.1_K3.1_C3.1_H3.1_[T3C]_A3.1_[T5A]_F3.1_T3.1] has a Kd greater than 2300 nM. Binder UCUCUUUAUAUUUAUCUCUU (ssRNA) [Ib_S1_P3E.1_K3.1_C3.1_H3.1_[G2A]_A3.1_[A6T]_F3.1_T3.1] has a Kd greater than 2300 nM.
